# Measured values reported in patent EP4792830A2 (Pfizer Inc., dated 2026).
# Residue numbers refer to the chain shown, from its start. Where two headings read alike, the source gives them in different places.
# T1: rabTFPI K1K2 (rabbit, limits assumed)
# T1 construct: also called Rabbit TFPI K1K2
# T1 chain: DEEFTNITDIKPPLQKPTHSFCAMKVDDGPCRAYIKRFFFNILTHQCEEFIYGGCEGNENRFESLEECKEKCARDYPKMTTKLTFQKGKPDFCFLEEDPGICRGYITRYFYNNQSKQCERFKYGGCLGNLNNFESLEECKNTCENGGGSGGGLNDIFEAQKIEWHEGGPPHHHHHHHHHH
# B1: TFPI-24 (antibody, human IgG1, lambda, V domains shown)
# VH: EVQLVESGGGSVQPGRSLRLSCAVSGLTIDNYAMQWVRQRPGKGLEWVSGISGNSRSIGYADSVKGRLTISRDNAKNSLYLQIDSLRADDTALYYCAIFLHESDYWGQGTLVTVSS
# VL: QSVLTQPPSVSGTPGQRVTISCSGSTSNIGTMYVHWYQHVPGTAPKLLIYRNNHRPSGVPDRFSGSKSGTSGSLAISGLRSEDEADYYCLAWDDTLRAYVFGTGTKVTVLG
# notes: Phage-derived, human IgG1-3M; also called mAb-TFPI-24; clone 24
# B2: TFPI-118 (antibody, human IgG1, lambda, V domains shown)
# VH: B1 VH with S11L, R40A, L68F, I83M, D84N, D89E
# VL: B1 VL with V10A, H39Q, V40L, G72A
# notes: Germlined variant of TFPI-24: VL of TFPI-113 paired with VH of TFPI-108
# B3: 6B7.c5 (antibody, human IgG1, kappa, V domains shown)
# VH: EVLLQQSGPELVKPGSSVKIPCKASGYTFTDYTMDWVKQSHGKSLEWIGDINPSNGGSIYNRKFKGKATLTVDKSSSTAYMELRSLTSEDTAVYYCARMHYNYDGFPYWGQGTLVTVSA
# VL: DIVMTQSHKFMSTSVGDRVSITCKASQDVITAVAWYQQKPGQSPKLLIYWASTRHTGVPVRFTGSGSGTDYTLTIISVQAEDLALYYCQQHYSTPYTFGGGTKLEIKA
# notes: Mouse hybridoma antibody
# B4: hz4F36 (antibody, human IgG4 S228P, kappa, V domains shown)
# VH: EVQLVESGGGLVKPGGSLRLSCAASGFTFSNYAMSWVRQTPEKRLEWVATISRSGSYSYFPDSVQGRFTISRDNAKNSLYLQMNSLRAEDTAVYYCARLGGYDEGDAMDSWGQGTTVTVSS
# VL: DIVMTQTPLSLSVTPGQPASISCKSSQSLLESDGKTYLNWYLQKPGQSPQLLIYLVSILDSGVPDRFSGSGSGTDFTLKISRVEAEDVGVYYCLQATHFPQTFGGGTKVEIKR
# notes: also called Novo2021; Anti-TFPI-4F36
# B5: 4D8-Vk1.0 x VH1.0 (antibody, human IgG1, kappa, V domains shown)
# VH: EVQLVESGGGLVQPGGSLRLSCAASGYTFTDYNLDWVRQAPGKGLEWVADINPINGATLYNQKFKGRFTISRDNAKNSLYLQMNSLRAEDTAVYYCARYYGDYDAMDYWGQGTLVTVSS
# VL: DIQMTQSPSSLSASVGDRVTITCKASQDVHTAVAWYQQKPGKAPKLLIYWASTRHTGVPSRFSGSGSGTDFTLTISSLQPEDFATYYCQQHYTTPYTFGQGTKLEIKR
# notes: Humanized 4D8 variant
# B6: 4D8-Vk1.1 x VH1.3 (antibody, human IgG1, kappa, V domains shown)
# VH: B5 VH with F68A
# VL: B5 VL with F71Y
# notes: Humanized 4D8 variant
# B7: 4D8-Vk1.1 x VH1.0 (antibody, human IgG1, kappa, V domains shown)
# VH: B5 VH
# VL: B5 VL with F71Y
# notes: Humanized 4D8 variant
# B8: 4D8-Vk1.1 x VH1.2 (antibody, human IgG1, kappa, V domains shown)
# VH: B5 VH with A49G
# VL: B5 VL with F71Y
# notes: Humanized 4D8 variant
# B9: 4D8-Vk1.0 x VH1.3 (antibody, human IgG1, kappa, V domains shown)
# VH: B5 VH with F68A
# VL: B5 VL
# notes: Humanized 4D8 variant
# B10: 4D8-Vk1.0 x VH1.2 (antibody, human IgG1, kappa, V domains shown)
# VH: B5 VH with A49G
# VL: B5 VL
# notes: Humanized 4D8 variant
# B11: hz4D8 (antibody, human IgG1, kappa, V domains shown)
# VH: B5 VH with N74Q
# VL: B5 VL with F71Y
# notes: humanized, human IgG1 3M / kappa; also called 4D8-Vk1.1 x VH1.4; 4D8 Vk 1.1 x VH 1.4
# B12: 4D8-Vk1.0 x VH1.4 (antibody, human IgG1, kappa, V domains shown)
# VH: B5 VH with N74Q
# VL: B5 VL
# notes: Humanized 4D8 variant
# B13: 4D8-Vk1.0 x VH1.1 (antibody, human IgG1, kappa, V domains shown)
# VH: B5 VH with A49G, F68A, R72V, N74Q, L79A
# VL: B5 VL
# notes: Humanized 4D8 variant
# B14: 4D8-Vk1.1 x VH1.1 (antibody, human IgG1, kappa, V domains shown)
# VH: B5 VH with A49G, F68A, R72V, N74Q, L79A
# VL: B5 VL with F71Y
# notes: Humanized 4D8 variant
# B15: 4D8.b1 (antibody, mouse IgG1, kappa)
# heavy: EVLLQQSGPELVKPGASVKIPCKASGYTFTDYNLDWVKQSHGKSLEWIGDINPINGATLYNQKFKGKATLTVDQSSSTAYMELRSLTSEDTAVYYCSIYYGDYDAMDYWGQGASVTVSSAKTTPPSVYPLAPGSAAQTNSMVTLGCLVKGYFPEPVTVTWNSGSLSSGVHTFPAVLQSDLYTLSSSVTVPSSTWPSETVTCNVAHPASSTKVDKKIVPRDCGCKPCICTVPEVSSVFIFPPKPKDVLTITLTPKVTCVVVDISKDDPEVQFSWFVDDVEVHTAQTQPREEQFNSTFRSVSELPIMHQDWLNGKEFKCRVNSAAFPAPIEKTISKTKGRPKAPQVYTIPPPKEQMAKDKVSLTCMITDFFPEDITVEWQWNGQPAENYKNTQPIMDTDGSYFVYSKLNVQKSNWEAGNTFTCSVLHEGLHNHHTEKSLSHSPGK
# light: DIVMTQSHKFMSTSVGDRVSITCKASQDVHTAVAWYQQKPGQSPRLLIYWASTRHTGVPDRFTGCGSGTDYTLTISSVQAEDLALYYCQQHYTTPYTFGGGTKLEMKADAAPTVSIFPPSSEQLTSGGASVVCFLNNFYPKDINVKWKIDGSERQNGVLNSWTDQDSKDSTYSMSSTLTLTKDEYERHNSYTCEATHKTSTSPIVKSFNRNEC
# notes: also called mouse 4d8.b1; TFPI 4D8
# B16: TFPI-106 (antibody, human IgG1, lambda)
# heavy: not shown
# light: QSVLTQPPSVSGAPGQRVTISCTGSSSNIGAGYDVHWYQQLPGTAPKLLIYGNSNRPSGVPDRFSGSKSGTSASLAITGLQAEDEADYYCQSYDSSLSGSGVFGGGTKLTVLGQPKAAPSVTLFPPSSEELQANKATLVCLISDFYPGAVTVAWKADSSPVKAGVETTTPSKQSNNKYAASSYLSLTPEQWKSHRSYSCQVTHEGSTVEKTVAPTECS
# notes: IgG1-3M
# B17: mu-hu 4D8 chimera (antibody, human IgG1, kappa)
# heavy: EVLLQQSGPELVKPGASVKIPCKASGYTFTDYNLDWVKQSHGKSLEWIGDINPINGATLYNQKFKGKATLTVDQSSSTAYMELRSLTSEDTAVYYCSIYYGDYDAMDYWGQGASVTVSSASTKGPSVFPLAPSSKSTSGGTAALGCLVKDYFPEPVTVSWNSGALTSGVHTFPAVLQSSGLYSLSSVVTVPSSSLGTQTYICNVNHKPSNTKVDKKVEPKSCDKTHTCPPCPAPEAAGAPSVFLFPPKPKDTLMISRTPEVTCVVVDVSHEDPEVKFNWYVDGVEVHNAKTKPREEQYNSTYRVVSVLTVLHQDWLNGKEYKCKVSNKALPAPIEKTISKAKGQPREPQVYTLPPSREEMTKNQVSLTCLVKGFYPSDIAVEWESNGQPENNYKTTPPVLDSDGSFFLYSKLTVDKSRWQQGNVFSCSVMHEALHNHYTQKSLSLSPG
# light: DIVMTQSHKFMSTSVGDRVSITCKASQDVHTAVAWYQQKPGQSPRLLIYWASTRHTGVPDRFTGCGSGTDYTLTISSVQAEDLALYYCQQHYTTPYTFGGGTKLEMKRTVAAPSVFIFPPSDEQLKSGTASVVCLLNNFYPREAKVQWKVDNALQSGNSQESVTEQDSKDSTYSLSSTLTLSKADYEKHKVYACEVTHQGLSSPVTKSFNRGEC
# notes: Mouse variable regions on human IgG1 3M and human kappa constant regions; also called hu-mu 4D8 chimera; mouse-human chimeric antibody 4D8
# B18: 7A4.D9 (antibody, V domains shown)
# VH: EVQLQQSGPELVKPGASVKMSCKASGYTFTSYVMHWVKQKPGQGLEWIGYLNPYNDGTKYNEKFKGKASLISDKSSSTVYMELSSLTSEDSAVYYCATTLLYAMDYWGQGSSVTVSS
# VL: DIVLTQSPASLAVSLGQRATISCRASKSVSTSGYTYMHWYQQKPGQPPKLLIYLASNLESGVPARFSGSGSGTDFTLNIHPVEEEDAAAYYCQHIRELPFTFGSGTKLEIKA
# notes: Mouse hybridoma antibody
# B19: 2A8 (antibody, human IgG1, lambda, V domains shown)
# VH: QVQLVESGGGLVQPGGSLRLSCAASGFTFRSYGMSWVRQAPGKGLEWVSSIRGSSSSTYYADSVKGRFTISRDNSKNTLYLQMNSLRAEDTAVYYCARKYRYWFDYWGQGTLVTVSS
# VL: DIELTQPPSVSVAPGQTARISCSGDNLRNYYAHWYQQKPGQAPVVVIYYDNNRPSGIPERFSGSNSGNTATLTISGTQAEDEADYYCQSWDDGVPVFGGGTKLTVLG
# B20: 2A8-200 (antibody, human IgG1, lambda, V domains shown)
# VH: B19 VH with S35D, S55R, K99L
# VL: B19 VL with Y48F, N51V, D91W
# notes: also called Anti-TFPI-2A8-200
# Legend:
# humTFPI K1K2 [1] = target: T2, humTFPI K1K2 (human); experiment: SPR, antibody ligand, TFPI analyte
# T2 construct: Biotinylated on the AviTag for ELISA; also called Human TFPI alpha K1K2; humTFPI K1K2-aviHis10
# rabTFPI K1K2 [2] = target: T1, rabTFPI K1K2; experiment: SPR, antibody ligand, TFPI analyte
# rabTFPI K1K2 [3] = target: T1, rabTFPI K1K2; experiment: SPR (summary table)
# rabTFPI K1K2 [4] = target: T1, rabTFPI K1K2; experiment: SPR, antibody ligand, TFPI analyte
# rabTFPI K1K2 [5] = target: T1, rabTFPI K1K2; experiment: ELISA, TFPI on streptavidin plate
# rabTFPI K1K2 [6] = target: T1, rabTFPI K1K2; experiment: ELISA, TFPI on streptavidin plate
# rabTFPI K1K2 [7] = target: T1, rabTFPI K1K2; experiment: ELISA, TFPI on streptavidin plate
# rabTFPI K1K2 [8] = target: T1, rabTFPI K1K2; experiment: SPR, antibody ligand, TFPI analyte
# cynTFPI K1K2 = target: T3, cynTFPI K1K2 (cynomolgus monkey); experiment: SPR, antibody ligand, TFPI analyte
# T3 construct: also called Cynomolgus Monkey TFPI K1K2; cyno TFPI K1K2
# humTFPI K1K2 [9] = target: T2, humTFPI K1K2; experiment: SPR, antibody ligand, TFPI analyte; remark: listed apart in the source
binder,measurement,setting,value
B1,Kd,humTFPI K1K2 [1],3.68 nM
same,koff,humTFPI K1K2 [1],0.00971 s⁻¹
same,kon,humTFPI K1K2 [1],918000 M⁻¹ s⁻¹
B2,Kd,rabTFPI K1K2 [2],5.79 nM
same,Kd,rabTFPI K1K2 [3],5.79 nM
B3,Kd,rabTFPI K1K2 [4],4.95 nM
same,koff,rabTFPI K1K2 [4],0.00564 s⁻¹
same,kon,rabTFPI K1K2 [4],1.14e+06 M⁻¹ s⁻¹
same,EC50,rabTFPI K1K2 [5],0.129 nM
B4,Kd,rabTFPI K1K2 [2],1.81 nM
same,koff,rabTFPI K1K2 [2],0.0076 s⁻¹
same,kon,rabTFPI K1K2 [2],4.2e+06 M⁻¹ s⁻¹
same,Kd,rabTFPI K1K2 [3],1.81 nM
B5,EC50,rabTFPI K1K2 [6],0.0785 nM
B6,EC50,rabTFPI K1K2 [6],0.0511 nM
B7,EC50,rabTFPI K1K2 [6],0.0451 nM
B8,EC50,rabTFPI K1K2 [6],0.0783 nM
B9,EC50,rabTFPI K1K2 [6],0.0556 nM
B10,EC50,rabTFPI K1K2 [6],0.0422 nM
B11,Kd,rabTFPI K1K2 [2],0.502 nM
same,koff,rabTFPI K1K2 [2],0.0029 s⁻¹
same,kon,rabTFPI K1K2 [2],3.16e+06 M⁻¹ s⁻¹
same,EC50,rabTFPI K1K2 [6],0.0716 nM
same,Kd,rabTFPI K1K2 [3],0.502 nM
B12,EC50,rabTFPI K1K2 [6],0.0426 nM
B13,EC50,rabTFPI K1K2 [6],0.0705 nM
B14,EC50,rabTFPI K1K2 [6],0.0788 nM
B15,Kd,rabTFPI K1K2 [4],0.63 nM
same,koff,rabTFPI K1K2 [4],0.00126 s⁻¹
same,kon,rabTFPI K1K2 [4],2.01e+06 M⁻¹ s⁻¹
same,EC50,rabTFPI K1K2 [5],0.0976 nM
B16,Kd,rabTFPI K1K2 [2],4.25 nM
same,Kd,rabTFPI K1K2 [3],4.25 nM
B17,EC50,rabTFPI K1K2 [7],0.068 nM
same,Kd,rabTFPI K1K2 [8],0.63 nM
same,koff,rabTFPI K1K2 [8],0.00126 s⁻¹
same,kon,rabTFPI K1K2 [8],2.01e+06 M⁻¹ s⁻¹
B18,Kd,rabTFPI K1K2 [4],3.55 nM
same,koff,rabTFPI K1K2 [4],0.0188 s⁻¹
same,kon,rabTFPI K1K2 [4],5.3e+06 M⁻¹ s⁻¹
same,EC50,rabTFPI K1K2 [5],0.0887 nM
B19,Kd,rabTFPI K1K2 [2],1.69 nM
same,koff,rabTFPI K1K2 [2],0.00123 s⁻¹
same,kon,rabTFPI K1K2 [2],730000 M⁻¹ s⁻¹
same,koff,cynTFPI K1K2,0.0306 s⁻¹
B20,koff,humTFPI K1K2 [9],0.00381 s⁻¹
same,Kd,rabTFPI K1K2 [2],0.145 nM
same,koff,rabTFPI K1K2 [2],0.000277 s⁻¹
same,kon,rabTFPI K1K2 [2],1.92e+06 M⁻¹ s⁻¹
same,Kd,rabTFPI K1K2 [3],0.145 nM
